According to the DeepSol protein solubility set:

Assay: soluble on expression in E. coli; label from the status in PepcDB or PDB records

With “GPGSMTSLNTELALAKRFHMLSKNYSNRPVIARRNTLPTLVRFIRSNDRETRHYSLSALLLLAQHEENVELLCLERGLVPGVYAVYKDADYDDPQLREIADQILNCLEPVLQGRDPRKASQTSVTPVGSSSDAVDSDPLNDSFSPSRRARAGRVLRGVGSDAIHTVLLDIPALDPNGGDNIEAIEDIFQTTRGVLSYSIFVENRQARLFVTCATQVVQQVLSDSGFESVVVRDDVVNQEMFGGGADGSAGLNSGGNRSNTSYYDGGSPQHRPSYLQSVANSIYQSALVLGGGSRNNDTLSARVNEQRTREQEGESTFGYISKTLSKWW” the “soluble on expression in E. coli” value was “not soluble”.

With “MGSDKIHHHHHHMIPSSMKAMVLKGHGGIDQLMYQDVPVPQPREGEVLVQVTATAKNNTDRKAREGLYPTKKGEMTSFQMGGKPTLTFPRIQGADIVGRIVAVGAGVSEQRIGERGLLDFNIYADNRTDINLTPDYYGHGADGGYAEYVALPSDQFHHIPNPDLADAELASMGMCSYQTAYHMLTSANIQAGERVLVTGASGGVGTALIQLCRIIGAIPYALSQKDKADSLLKLGAEAVLDRTDMDSFVDRVKAETGGKPLDAVMDLVGGDMTDRFIDAMIFDMNARSTYPRLSIAGASGGNISEILWTRIYLYQVQIFGVSHGTREEAEQLMRWIRSGDLKPVLHGAFRLSELHRAEEYFVNRGSNYLGKIVIVPDAQWQEHGQPYEVEAD” the “soluble on expression in E. coli” value was “not soluble”.

With “MGSDKIHHHHHHMDIIEELRAYREKDIPYSRVLSSMCTVPHPVAVEAHRMFIETNLGDPGIFRGTVELEAKLMRLIGDILHCETPAGYICSGGTEANIQGIRAARNVQKKENPNIVIPKTAHFSFEKIGDILGVKIKRAGVDEEYKVDVGQVEDLMDENTVAIVGIAGTTELGQIDPIVELSKLAEERQVELHVDAAFGGLVIPFMDNPYPFDFQNRGVSSITIDPHKMGMATIPAGGIIFRNESYLRALEVETPYLTSKTQFTLTGTRPGTGVASAYAVLKSLGFEGMREVVKNCLKNTRILVEEMRDLGFEPVIEPVMNVVSFRTDEAERIKEELYRMRWVISTIREPKAIRFVVMPHVTEEVIKNFISDFRKVLRR” the “soluble on expression in E. coli” value was “not soluble”.

With “MAHHHHHHMPIPSPPPPMRFVPNGVGGGGARDLTAVKEPNFEVLETSSPVPARVIHNAPASAVPSGTQRPVEAPPSTHATGAQHHPKAVHSPPLACPALAMTSTPASSSSSSSSQQVAQLWQLVQDLTAENAVLQQRVRVLMEGETHDAILPGMLTAPSSPEETEALLLRVRRLEAALKVEAMEREALEVRLQAQEQVLTRLLRR” the “soluble on expression in E. coli” value was “soluble”.

With “LTSSNALRGDAHSRLAAHRGLLERTSRTTRVAGILRDAIIDGTFRPGARLSEPDICAALDVSRNTVREAFQILIEDRLVAHELNRGVFVRVPTAEDITELYICRRVVECAGVNGFDPATGDLSRVAEALDLADERYAVEDWTGVGTADIHFHSALASLNNSNRIDELMRSVWNEARLVFHVMDDAHRFHGPYLTRNHEIYDALAAGNTEAAGQLLKTYLEDAEAQILGAYRPVSG” the “soluble on expression in E. coli” value was “soluble”.

For “MSLVTIYDVAAKAGVSIKTVSRVMNNEPNVRPVMRERVLAAAGELGYSPNLSARSLAGSRSFVIAVFVDAALTIDHWQSERGADYLSRIQLGATLVCRDAGYHLLIELIDHEGPQVRQEVAALLAALKPDGVILTPPSSDNAVVLELLDRAGTPYVRVGPERAEGLGPRVHMDDVAAAREMTDHLIGLGHKRIGFIVGEPRYGASQARRDGYLEAMRAKGLSVPEFWVRQGDFTFQSGLEQAKALLALPERPTAIFASNDDMALGAIAAIADAGLMTPGDVSVAGFDDSPSSRFSRPQLTTVRQPVAEMSSVAAKLLIERSRGGASTERPVDELLPFTLIHRASTEGHHHHHH”, the “soluble on expression in E. coli” value was “not soluble”.

For “MTEVRRRGRPGQAEPVAQKGAQALERGIAILQYLEKSGGSSSVSDISLNLDLPLSTTFRLLKVLQAADFVYQDSQLGWWHIGLGVFNVGAAYIHNRDVLSVAGPFMRRLMLLSGETVNVAIRNGNEAVLIGQLECKSMVRMCAPLGSRLPLHASGAGKALLYPLAEEELMSIILQTGLQQFTPTTLVDMPTLLKDLEQARELGYTVDKEEHVVGLNCIASAIYDDVGSVVAAISISGPSSRLTEDRFVSQGELVRDTARDISTALGLKAHP”, the “soluble on expression in E. coli” value was “soluble”.

With “MGHHHHHHSHMLTKFETKSARVKGLSFHPKRPWILTSLHNGVIQLWDYRMCTLIDKFDEHDGPVRGIDFHKQQPLFVSGGDDYKIKVWNYKLRRCLFTLLGHLDYIRTTFFHHEYPWILSASDDQTIRVWNWQSRTCVCVLTGHNHYVMCAQFHPTEDLVVSASLDQTVRVWDISGLRKKNLSPGAVESDVRGITGVDLFGTTDAVVKHVLEGHDRGVNWAAFHPTMPLIVSGADDRQVKIWRMNESKAWEVDTCRGHYNNVSCAVFHPRQELILSNSEDKSIRVWDMSKRTGVQTFRRDHDRFWVLAAHPNLNLFAAGHDGGMIVFKLERERPA” the “soluble on expression in E. coli” value was “not soluble”.

In the case of “MKGDVSPIFSPKHLQFKRPTLWRYGRIQKISIMSSKRSSPTGKLRLLSFLRDLLEDESNSDIIYWFDKSESVFKMSKPHKVAELWGAATGNPGMNYDKMSRGLRYFYTNNTLEKVPGKDARYRFIDSPRHSFLDFSMKTELETPVKRTPLFNISNLISDFEVSNNSLTSSPTSSASSVEPSSPTTTESSLDPSQFVQLTQNLVQFNTFMSQNPMFHTLPLPTQLQVFFNFKTIFPSLFPALV”, the “soluble on expression in E. coli” value was “not soluble”.

For “MTRSRRGALARSSEGGPFPTADPVADRALCGWRVRSVIDLPELPLWTRDDRLPDVTIAFGRVTPVESASPGMNWHVVGEGRFRFTVASVGSYRISRGRVITIDPQAGVVASAVRQYLLGTAFGVLCHQRGLLPLHASCVAINGRAVAIAGASGAGKSSLAAALVRLGYPLLGDDVCVIDASEINAPHVLPAIPRLKLWRDVLDTFGLIVDPAARILEGIDKYQAQALADRPPPPPPQVPLPLGVVYYLDQAESPDDEGFHAIRGAERAAALAGAVYRRKMGLAMGLLPQIFTATMTVGALVPGHRLLRHGDLSGLDALARSVAARQEGRGLEHHHHHH”, the “soluble on expression in E. coli” value was “not soluble”.

In the case of “MSLSFKNVNLIYADIATDSAETPETVLTQDDLEKEFEFWEATSLGLFDYMRKSRSKGFVLSLSGGADSSACAIMVAEMIRKGLKELGLTAFLQKSNMETLFDLPALQHLPFEEQAKKITAVFLTTAYQSTRNSGDETYTSAKTLAESIGATFYNWSVDEEIEQYKATIENVIERPLTWEKDDITLQNIQARGRAPIIWMLTNVKQALLITTSNRSEGDVGYATMDGDTAGGIAPIAGVDKDFIRSWLRWAEKNRNQHGLHIVNKLAPTAELRPSEYTQTDERDLMPYDVLARIERKAIKERLSPVQVYTALLTEGPYTKNEFKYWVKKFFRLWSINQWKRERLAPSFHMDDFNIDPRSWYRFPILSSGFAKELNDLDQEGHHHHHH”, the “soluble on expression in E. coli” value was “not soluble”.

In the case of “MTVGVGGSTPAQALERLRNMMDGAQPIGLASYRARIAAAQAWMGEHGIAAAYLHAGSNLRYFSGVQWHPSERLVGALLPAEGALEYLAPAFEEGTVRDFQVVDGAIHTWEEHQDPYRLLLDRLEALGVGERSTVALCPSLPFGMFERLRQQAPGRNFVSAAPLIDQGRMRKSAEELALMQRAKDMTLEVQKAAASILREGISTTEVAEFIHQAHRKVGAPGSTFCIVLFGAASAFPHGVKHAQVLKDGDMVLIDTGCQVHGYQSDITRSYVFGTPSARQREFWGMERDAQLAAFEAARLGQPCEAVDAAARRSLEANGLGPDYRLPGLPHRTGHGIGMDVHEGPYLVRGDRTPLDVGMCFSNEPMICVPGEFGIRLEDHFYMTKEGPRWFT”, the “soluble on expression in E. coli” value was “not soluble”.

With “MSLMKSSPLVRQASTEKESTKSENLTEYLIEAIVEGQLAPGSKISEPELAKQFQVSRGPLREALMRVEGLGLIERIPHIGARVIQLSPTKLVELYAVREALEGMAARLAARNITEIELAGLESLLSTHSTHIDQVEGASYFHQQGDFDFHYRIIQACRNQQLIGLLCDELYHLLRMYRYQSPRSHSRPVEALEEHKFILRAIRQRDEELAEMLMRRHISRSRQLIEQQIMLDAQQQGEGHHHHHH” the “soluble on expression in E. coli” value was “soluble”.

With “MSRLVLLISLVIVVASAAAPQCEVCKKVLDDVMAKVPAGDKSKPDAIGKVIREHCETTRNKENKFCFYIGALPESATSIMNEVTKPLSWSMPTEKVCLEKLKGKDAQICELKYDKPLDWKTIDLKKMRVKELKNILGEWGEVCKGCTEKAELIKRIEELKPKYVKEEL” the “soluble on expression in E. coli” value was “not soluble”.

In the case of “MSLHIVVIGAGIVGASTALELQRDGHRVTLVEPGQPGGPQAASFGNGAWLSPASVVPMSMPGLWKKVPGYLMDPLGPLTIRWTALPALAPWLLRFIAAGATVPKVEATARALKALLSDAPERHTALAAEAGLADLVERKGLLYAYPDRAAFEAEALAWRLRRDNGIVWRELDGPALKAFEPTLHPRYGFGALVEAGAHCVDPGAYVAGLVAFAESRGLTRIEAAATGFDIVGGRLQAVRTAKGSVPCDRAVIAAGIHSRALAAEAGDKVSLASERGYHVVVATPESGPHLPVMPSDGKMANTPTRAGLRASGQVELAAVAAAPNWKRADVLLDHLLNTYPGLPRQVPEARLSRWLGHRPSTPDGVPVIGQASACTDIVHAFGHGHVGLASGPITGRLVADIIAGRPPERDIRPYAAARFRREGHHHHHH”, the “soluble on expression in E. coli” value was “soluble”.

For “MRQKTIREISVAWKEYKQPYVKQSTMAAYVLILENHILPNFGESDTLHEQAVQDFVLRKIENGLSVKSVKDILIVLKMVMKFGVKNEWMDYQEWDIKYPSSSTTKELEVLSVANHKKILNHIQNHFSFTGLGIYISLCTGLRIGEVCALKWSDINVSEGTITVNRTIERIYIIDGTKKHTELVINTPKTQNSCREIPMTKELLAMVKPLKKVVNEDFYVLTNDEYPTEPRTYRNYYGKLM”, the “soluble on expression in E. coli” value was “not soluble”.

For “MIKDYLIETMNQDEVNLAITWAAQEGWNPGIHDATCFYQTDPHGFFAGKLNGKTIAIGSAVIYDDFFAFCGFYIVDKSYRDQGYGLELTKARLAYIGNRNAGIDGVINMLDKYARIGYQLAHNNARYCLNKTIKPISSEPHIVPLNQIDFSQLSSYDRLHFPAPRPQFLKCWINQPQSLALAYLIDGQIKGYGVIRTCHKGFKIGPLFAGTPEIAHQLFSNLVPYAKGQLIFLDIPENNPLAIELVSQYQMKKVFATARMYLKGEPPVKKESIYGITTFELG”, the “soluble on expression in E. coli” value was “not soluble”.

In the case of “SVHKPSGQIMAVKRIRSTVDEKEQKQLLMDLDVVMRSSDCPYIVQFYGALFREGDCWICMELMSTSFDKFYKYVYSVLDDVIPEEILGKITLATVKALNHLKENLKIIHRDIKPSNILLDRSGNIKLCDFGISGQLVDSIAKTRDAGCRPYMAPERIDPSASRQGYDVRSDVWSLGITLYELATGRFPYPKWNSVFDQLTQVVKGDPPQLSNSEEREFSPSFINFVNLCLTKDESKRPKYKELLKHPFILMYEERTVEVACYVCKILDQMPATPSSPMYVD”, the “soluble on expression in E. coli” value was “soluble”.

For “MPTVLRWTRTMCKRPTCRVRQAWLVLPITGRWPSGGVSMKHACMLDSALPKPSQHSLRRQLNAIKREQFPWMSEVTKNAPQMAIIQLGRAFQNFFAGRAKYPKFRKKGMHDRFTLTNDQFDLEASRIRIPRLGWVRMRETLRFAGKIMLATVSRVAGRWFVSITVDVPDPSHLPQAENQGTVGVDLGVLVLATLSTGETVCGPRPHRALLGRVCRLSRSVLRKVKGSANRHKAKATLANLHARIAAIRLDALHTLTSDLTRRFHTIGIENLNVKGMLRNRHLARSIADIGFFEFRRQLEYKAMMRGGQVVVANRFFASSKRCLTCGHTLNELPLSVRQWACPACGARHDRDVNAAVNLKNMAVSSTVSACGEEGAGPRRKTAVGEAGSQLLEHHHHHH”, the “soluble on expression in E. coli” value was “not soluble”.

For “MGSDKIHHHHHHMSKFINPFTDYGFKLIFGREVSKDLLIEFLNDLLEGERVITDLTFLNNEQLPDYPEGRGIIYDVYCTTDTGEKIIVEMQNRMQSNFKERSIFYLSRAIVNQGRTGHDWKFEIKAVYGVFLMNFIMDKNIKLRTDVILADKETGELFSEKFRQIFIALPLFKKSEEECETNFERWIYILNNMETLKRLPFKARKAVFEKLEEIADVASMSPKERELYDNSVKVYRDYLVTMDAAEKEGIKKGMKEGMKEGLKKGLEEGLEEGLKKGREEALNIFQTAIDMKKQGIDNQLIAEKTGLPLSLIESLK”, the “soluble on expression in E. coli” value was “not soluble”.
